Laboratory results reported in US20150056232A1.

Target: TLR5

With “FliC180 protein of S. Typhimurium (Phase I FliC flagellar antigen with the ΔfliC180 deletion) (from UniProt P06179) (ligand)” the NF-κB production (% higher than the FliC+ strain) was 50.
